In PMC5531254, “MRE11 stability is regulated by CK2-dependent interaction with R2TP complex” (Oncogene, 2017):
No end group written: not given here.

Experiments:
[1] = target: PIH1D1 N-terminal PIH-N domain fragment (UniProt Q9NWS0); test: ITC; MRE11 peptides with purified PIH1D1 PIH-N domain fragment, performed as described previously
[2] = target: PIH1D1 (51-180) (UniProt Q9NWS0); test: ITC; ~80 uM protein and ~800 uM peptide; performed in triplicate, means ± standard deviation; ITC as described previously
Chain of PIH1D1 (51-180) (UniProt Q9NWS0) (Q9NWS0 51-180): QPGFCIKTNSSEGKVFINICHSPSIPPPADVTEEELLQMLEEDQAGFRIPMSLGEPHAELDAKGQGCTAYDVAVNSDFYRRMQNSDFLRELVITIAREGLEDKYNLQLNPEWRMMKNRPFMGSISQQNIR

[3] = target: T1, PIH1D1 (51-180) (UniProt Q9NWS0 51-180); test: as above; conditions: both partners purified
T1 construct: also called PIH1D1 N-terminal PIH-N domain fragment (aa 51-180); PIH-N; source: purified as described previously
T1 sequence (Q9NWS0 51-180): as above

## MRE11 DpSDD motif-containing peptide phosphorylated on serines 558 and 561
[1]
  Kd: 26 µM

## MRE11 pS558/pS561 peptide (ITC)
[2]
  Kd: 26.1 µM
  stoichiometry N: 1.1

## MRE11 pS688/pS689 peptide (ITC)
[2]
  Kd: 40.9 µM
  stoichiometry N: 0.8

## MRE11 third acidic sequence peptide phosphorylated on serines 688 and 689
[1]
  Kd: 41 µM

B1: TEL2 pS491 peptide (peptide)
peptide: YSDLDSDDEFVPY
modifications: also: phosphoserine at 491 (TEL2 numbering), position in peptide not given here
notes: N-terminal tyrosine added for concentration determination; not part of TEL2; source: synthetic peptide
[3]
  stoichiometry N: 1.3
